Experimental data published in patent publication US11414460B2, “KRAS-specific capture agents, compositions, and methods of making and using” (Institute for Systems Biology, priority 2019, dated 2022).
Positions of bridges follow the written chain, without caps; N, C: chain ends. Non-standard residues stand in square brackets, D forms with d. Residues, ends and D or L forms follow the SMILES beside them. Triazole bridges read from a SMILES are 1,4-linked. No end group written: not given here. ξ: configuration not given here. dPhe(4-guanidino) = N=C(N)Nc1ccc(C[C@@H](N)C(=O)O)cc1; Phe(4-guanidino) = N=C(N)Nc1ccc(C[C@H](N)C(=O)O)cc1; ξLys(N3) = [N-]=[N+]=NCCCCC(N)C(=O)O; Aha = [N-]=[N+]=NCC[C@H](N)C(=O)O; Pra = C#CC[C@H](N)C(=O)O

Legend:
KRAS (G12D) [1] = target: T1, KRAS (G12D) (Homo sapiens, UniProt P01116, G12D); assay: ELISA binding of cyclic peptides to KRAS (G12D); conditions: absorbance units; for ELISA binding compared with LRGGnf: FIG. 3 and FIG. 4, 5 μM and 20 μM peptide, KRAS (WT) and KRAS (G12D)
Method: FIG. 2 is a graph of a single point ELISA assay comparing the binding (measured in absorbance units, A.U.) of cyclic peptide 7b10 (LRGDGnf; SEQ ID NO:5) and LRGGnf (SEQ ID NO:4) to KRAS (WT) and KRAS (G12D).
(§1) FIG. 3 is a graph of ELISA assays of four peptides (LRGGnf (SEQ ID NO:4), LRG (F—Br) (SEQ ID NO:6), LRGGnf-Az3 (SEQ ID NO:4), and LRGGnf-Az2 (SEQ ID NO:4)) at two different concentrations (5 μM and 20 μM) to KRAS (WT) and KRAS (G12D) comparing the binding (measured in absorbance units, A.U.). […] All of the cyclic peptides show preferential binding to KRAS (G12D) over KRAS (WT).
as §1, with “4” for “3”, “(QDNY” for “(LRGGnf”, “NO:14), QNGnfY” for “NO:4), LRG (F—Br)”, “NO:24), QQGnfGnf” for “NO:6), LRGGnf-Az3”, “NO:3),” for “NO:4),”, “LRGGnf” for “LRGGnf-Az2”

KRAS (WT) = KRAS (WT) (Homo sapiens, UniProt P01116); assay: EC50 for KRAS (WT); assay type: binding
KRAS (G12D) [2] = target: T1, KRAS (G12D); assay: EC50 for KRAS (G12D); assay type: binding

| Compound | ELISA binding compared with LRGGnf (KRAS (G12D) [1]) | other results |
| --- | --- | --- |
| N=C(N)Nc1ccc(C[C@H]2NC(=O)[C@@H](Cc3ccc(NC(=N)N)cc3)NC(=O)[C@@H](CCC(N)=O)NC(=O)[C@@H](CCC(N)=O)NC(=O)[C@@H](N)Cc3cn(nn3)CCCCC(C(N)=O)NC2=O)cc1 (stereo partly shown) [QQGnfGnf] (H-[Pra][dQ][dQ][dPhe(4-guanidino)][dPhe(4-guanidino)][ξLys(N3)]-NH2; triazole 1-6) | – | EC50 (KRAS (WT)): 3 µM; EC50 (KRAS (G12D) [2]): 1 µM |
| LRGGnf-Az3: cyclic peptide LRGGnf (SEQ ID NO:4) with azidoornithine (OrnN3 or Az3) (LRG[Phe(4-guanidino)]; also: cyclic peptide, only variable region given, azidoornithine (Az3) modification, position not given here) | comparable to LRGGnf | – |
| LRGGnf: cyclic peptide with variable region LRGGnf (SEQ ID NO:4) (LRG[Phe(4-guanidino)]; also: cyclic peptide, only variable region given) | – | binding compared to LRGDGnf, single point ELISA (KRAS (G12D) [1]; FIG. 2, single point ELISA to KRAS (WT) and KRAS (G12D)): 5 times |
| QDNY: cyclic peptide with variable region QDNY (SEQ ID NO:14) (also: cyclic peptide, variable region only, ring closure not given here) | more so | – |

Second part, led by results:

| ELISA binding compared with LRGGnf (KRAS (G12D) [1]) | Compound | other results |
| --- | --- | --- |
| slightly better | CC(C)C[C@@H]1NC(=O)[C@@H](N)Cc2cn(nn2)CC[C@@H](C(N)=O)NC(=O)[C@H](Cc2ccc(NC(=N)N)cc2)NC(=O)CNC(=O)[C@H](CCCNC(=N)N)NC1=O [LRGGnf-Az2] (H-[Pra]LRG[Phe(4-guanidino)][Aha]-NH2; triazole 1-6; N-terminus and C-terminus assumed) | – |
| noticeable worse | LRG (F—Br): cyclic peptide with variable region LRGF-Br (SEQ ID NO:6), F—Br is bromophenylalanine (LRG[bromophenylalanine]; also: cyclic peptide, only variable region given) | – |
